Assay results as given in PMC6437208.

Biological target: CsgB-His (curli nucleator CsgB with C-terminal poly-histidine tag) (E. coli) (UniProt P0ABK7)
UniProt P0ABK7, sequence (P0ABK7 22-151): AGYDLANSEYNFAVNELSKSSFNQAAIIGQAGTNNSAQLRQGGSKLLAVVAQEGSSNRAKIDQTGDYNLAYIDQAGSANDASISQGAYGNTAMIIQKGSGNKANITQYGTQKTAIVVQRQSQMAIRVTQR

CsgA R5 subunit domain peptide
ThT assay: reduction of tau50 of R5 fibril formation in the presence of CB-origami: 1.5 h
